Experiments:
[1] = target: T1, recombinant human plasminogen (not fused to Fc, wild-type)
T1 chain: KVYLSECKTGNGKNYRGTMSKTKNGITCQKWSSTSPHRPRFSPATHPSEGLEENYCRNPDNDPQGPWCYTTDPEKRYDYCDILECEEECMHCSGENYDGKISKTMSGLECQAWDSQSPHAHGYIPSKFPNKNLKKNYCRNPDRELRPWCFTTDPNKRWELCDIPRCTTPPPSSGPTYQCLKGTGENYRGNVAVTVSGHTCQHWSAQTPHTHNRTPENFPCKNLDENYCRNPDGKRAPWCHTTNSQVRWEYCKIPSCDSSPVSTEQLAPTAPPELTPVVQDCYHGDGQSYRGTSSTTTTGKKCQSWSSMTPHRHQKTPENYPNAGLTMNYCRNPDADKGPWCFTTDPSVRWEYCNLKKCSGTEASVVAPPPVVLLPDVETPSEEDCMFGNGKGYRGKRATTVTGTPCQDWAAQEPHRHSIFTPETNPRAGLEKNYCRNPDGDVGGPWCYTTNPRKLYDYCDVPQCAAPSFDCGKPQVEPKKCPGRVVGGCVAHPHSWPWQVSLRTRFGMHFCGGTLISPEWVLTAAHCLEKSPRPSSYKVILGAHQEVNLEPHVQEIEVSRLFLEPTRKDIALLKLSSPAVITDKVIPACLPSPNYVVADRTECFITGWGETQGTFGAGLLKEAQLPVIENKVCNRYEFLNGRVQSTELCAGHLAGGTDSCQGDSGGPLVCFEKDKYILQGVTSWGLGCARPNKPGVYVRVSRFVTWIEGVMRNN

[2] = target: recombinant plasminogen-linker-Fc fusion (human plasminogen, QA linker GQAGQAS, Fc)

B1: tissue-type plasminogen activator (protein)
chain: SYQVICRDEKTQMIYQQHQSWLRPVLRSNRVEYCWCNSGRAQCHSVPVKSCSEPRCFNGGTCQQALYFSDFVCQCPEGFAGKCCEIDTRATCYEDQGISYRGTWSTAESGAECTNWNSSALAQKPYSGRRPDAIRLGLGNHNYCRNPDRDSKPWCYVFKAGKYSSEFCSTPACSEGNSDCYFGNGSAYRGTHSLTESGASCLPWNSMILIGKVYTAQNPSAQALGLGKHNYCRNPDGDAKPWCHVLKNRRLTWEYCDVPSCSTCGLRQYSQPQFRIKGGLFADIASHPWQAAIFAKHRRSPGERFLCGGILISSCWILSAAHCFQERFPPHHLTVILGRTYRVVPGEEEQKFEVEKYIVHKEFDDDTYDNDIALLQLKSDSSRCAQESSVVRTVCLPPADLQLPDWTECELSGYGKHEALSPFYSERLKEAHVRLYPSSRCTSQHLLNRTVTDNMLCAGDTRSGGPQANLHDACQGDSGGPLVCLNDGRMTLVGIISWGLGCGQKDVPGVYTKVTNYLDWIRDNMRP
- Michelis-Menten analysis of activation (KM and Vmax), 10 mM EACA [1]: the kinetics of rPlg and rPlg-Fc activation are similar (as indicated by the KM and Vmax)
- activation measured by the hydrolysis of plasmin fluorogenic substrate H-Ala-Phe-Lys-AMC [1]: In the presence of tPA or uPA, comparable hydrolytic activity for rPlg and rPlg-Fc is observed
- Michelis-Menten analysis of activation (KM and Vmax), 10 mM EACA [2]: the kinetics of rPlg and rPlg-Fc activation are similar (as indicated by the KM and Vmax)
- activation measured by the hydrolysis of plasmin fluorogenic substrate H-Ala-Phe-Lys-AMC [2]: In the presence of tPA or uPA, comparable hydrolytic activity for rPlg and rPlg-Fc is observed
